Target: T1, human angiotensin-converting enzyme 2 (ACE2 protein) expressed on stably transfected PER.C6 cells (human, UniProt Q9BYF1 18-805)
T1 construct: also called human ACE2 receptor; PER.C6-ACE2
Assay: flow cytometry on ACE2-transfected PER.C6 clones

T1 sequence (Q9BYF1 18-805 limits assumed): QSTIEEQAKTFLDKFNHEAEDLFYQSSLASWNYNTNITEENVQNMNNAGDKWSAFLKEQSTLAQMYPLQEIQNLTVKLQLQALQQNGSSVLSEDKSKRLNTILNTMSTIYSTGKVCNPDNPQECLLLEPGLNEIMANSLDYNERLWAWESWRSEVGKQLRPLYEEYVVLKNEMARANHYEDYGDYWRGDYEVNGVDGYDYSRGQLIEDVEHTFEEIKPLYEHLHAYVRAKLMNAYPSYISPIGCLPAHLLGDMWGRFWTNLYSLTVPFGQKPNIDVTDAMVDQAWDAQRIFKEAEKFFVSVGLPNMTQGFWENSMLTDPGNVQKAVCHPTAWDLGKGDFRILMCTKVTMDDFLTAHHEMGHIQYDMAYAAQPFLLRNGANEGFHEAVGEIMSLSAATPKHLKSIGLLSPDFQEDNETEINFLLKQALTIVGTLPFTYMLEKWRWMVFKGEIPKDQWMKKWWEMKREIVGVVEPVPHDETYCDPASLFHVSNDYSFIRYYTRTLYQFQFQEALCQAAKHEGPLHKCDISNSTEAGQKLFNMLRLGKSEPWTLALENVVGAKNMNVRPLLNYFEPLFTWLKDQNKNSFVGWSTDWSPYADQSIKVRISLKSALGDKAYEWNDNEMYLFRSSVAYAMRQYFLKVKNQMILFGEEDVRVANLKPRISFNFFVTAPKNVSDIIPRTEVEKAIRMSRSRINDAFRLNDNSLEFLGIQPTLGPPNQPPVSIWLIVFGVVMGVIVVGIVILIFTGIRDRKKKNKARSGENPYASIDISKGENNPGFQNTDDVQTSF

B1: wild-type SARS-CoV Frankfurt 1 S318-510 fragment, myc/His-tagged (ligand)
chain: not shown
- binding result: binds

Reference: US20090098530A1 (CRUCELL HOLLAND B V, published 2009)
